The target in assay [1] is 4 domain CD4 (residues 1-388) with a C-terminal twin strep tag (human) (UniProt P01730). Put plainly: SEC. (In general: Size exclusion chromatography separates by hydrodynamic size, large species first.)
Assay [2] deals with intact human C-C chemokine receptor type 5 (human) (UniProt P51681). The experiment in a line: SEC.

As usually defined, the stoichiometry N is a count of units in the complex or per binding partner.

UniProt P51681, sequence (P51681 whole entry): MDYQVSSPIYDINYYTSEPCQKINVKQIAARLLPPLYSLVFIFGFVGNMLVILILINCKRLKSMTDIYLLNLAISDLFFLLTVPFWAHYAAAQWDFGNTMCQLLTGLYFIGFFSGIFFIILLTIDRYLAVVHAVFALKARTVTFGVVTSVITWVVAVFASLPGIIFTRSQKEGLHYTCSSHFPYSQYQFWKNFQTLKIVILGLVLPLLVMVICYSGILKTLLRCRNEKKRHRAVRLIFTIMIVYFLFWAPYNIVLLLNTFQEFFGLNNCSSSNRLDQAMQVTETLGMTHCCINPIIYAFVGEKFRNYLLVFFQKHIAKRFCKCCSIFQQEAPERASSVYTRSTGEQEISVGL

As to “HIV-1 gp120 (residues 1-507) from the isolate 92BR020 with a C-terminal 6xhistidine tag (natural protein)”, the stoichiometry N in assay [1] is 1. As to “preformed CD4-gp120 complex (from UniProt P01730 26-388)”, the stoichiometry N in assay [2] is 1.

For the origin of these results see article PMC6391877.
